Results: patent US9878005B2, “Method of promoting wound healing with hyodxia-induced mitogenic factor” (THE JOHNS HOPKINS UNIVERSITY, priority 2003, dated 2018)

Assays:
[1] = tested on: rat pulmonary microvascular smooth muscle cells (RPSM); assay: 3H-thymidine incorporation assay (RPSM proliferation); assay type: cell-based; conditions: for inhibition of serum-induced RPSM proliferation: preliminary experiments
Source text: Cell culture and ^3H-thymidine incorporation assays. Rat pulmonary microvascular smooth muscle cells (RPSM) were isolated from male Sprague-Dawley rats (150-200 g) according to a published method2. Briefly, after the pulmonary artery was flushed with phosphate buffered saline (PBS), it was infused with 2% iron oxide suspension in 0.5% agar. The air spaces were filled with agar, the subpleural margins were harvested and partially collagenase digested, and the microvessels were separated magnetically. The identity of RPSM was confirmed by characteristic appearance on phase-contrast microscopy and indirect immunofluorescent antibody staining for smooth muscle-specific isoforms of […] and myosin heavy chain. RPSM were grown in DMEM/F12 medium supplemented with 10% fetal bovine serum (FBS), 2 mM of glutamine, […] of penicillin and 100 μg/ml of streptomycin. Passage 3 to 5 cells were used in the experiments.
The cells were seeded in 24-well plates at 5×10^4/well. After synchronization with serum-free DMEM/F12 (supplemented with 1% Bovine serum albumin (BSA)) for 24 to 48 hours, the cells were treated with the specified agents and 0.1 μCi/well (or 1 μCi/well) of 3H-thymidine in the serum-free DMEM/F12 for 48 hours. After the experimental protocol was completed, the cells were rinsed with PBS twice and incubated in 10% TCA for 30 min. The cells were then washed with PBS two more times and lysed in 250 μl of the lysis buffer (1% SDS, 0.8% NaOH). 3H-thymidine incorporation was measured with a Beckman 6500 scintillation counter in 10 ml of scintillation cocktail.

[2] = tested on: Akt phosphorylation (PI3K/Akt pathway) in RPSM; assay: Western blot for pAkt and Akt in RPSM; assay type: cell-based, rat; conditions: for inhibition of HIMF-activated Akt phosphorylation: 5 minutes
Description: Western blots. The tissue collection and homogenization were performed as described before^1. HIMF was detected with 1:1000 dilution of the anti-HIMF antibody (raised in rabbit using the peptide CENKVKELLANPANYP (SEQ ID NO: 10) conjugated to keyhole limpet hemocyanin as the antigen) followed by 1:3000 dilution of goat anti-rabbit HRP-labeled antibody (BioRad, Hercules, Calif.). The specificity of the anti-HIMF antibody was preliminarily characterized with peptide competition. The peptide used as the immunogen blocked only the HIMF band and had no effect on the nonspecific bands. For phospho-Akt (pAkt) and Akt blots, RPSM were lysed in CelLytic-M (Sigma, St. Louis, Mo.) supplemented with 1 mM PMSF and 1:100 of protease inhibitor cocktail, phosphatase inhibitor cocktail 1 and 2 (Sigma, St. Louis, Mo.). 18 μg of protein in equal volume was subjected to electrophoresis in 4-20% polyacrylamide gel (BioRad, Hercules, Calif.). After transfer to nitrocellulose membrane, the membrane was first probed with anti-pAkt1/2/3(Thr308)(1:500, (Santa Cruz Biotechnology, Santa Cruz, Calif.). Then it was stripped and reprobed with anti-Akt1/2/3 (1:500, (Santa Cruz Biotechnology, Santa Cruz, Calif.).

pulmonary vasculature = assay: Intact chest mouse experiment; assay type: in vivo; conditions: intravenous injection
Description: Intact chest mouse experiment. The animals were ventilated with 95% O2/5% CO2 and 2% isoflurane using a custom-designed, constant-flow mouse ventilator with tidal volume set to 6.7 ml/kg at 140 breaths/min. A femoral artery was cannulated for the measurement of systemic arterial pressure, which was measured with a Viggo-Spectramed transducer attached to a polygraph (Grass Instruments, model 7). Heart rate was determined from the systolic pressure pulses with a tachometer (Grass, model 7P44A), and the left jugular vein was cannulated for the administration of drugs. The animals were strapped in the supine position to a fluoroscopic table, and PAP was measured with a specially designed murine pulmonary arterial catheter attached to a pressure transducer (Schneider/Namic). Mean PAP was derived electronically, and pulmonary arterial wedge pressure was determined by recently described procedures^6. Cardiac output was measured by the thermodilution technique by injection of a known volume (20 μl) of 0.9% NaCl solution at 23° C. into the right atrium and measurement of blood temperature changes in the root of the aorta with a cardiac output computer (Cardiotherm 500, Columbus Instruments, Columbus, Ohio) equipped with a small-animal interface. A thermistor microprobe (Columbus Instruments, Fr-1) was inserted into the right carotid artery and advanced to the aortic arch, where changes in aortic blood temperature were measured.

[3] = tested on: Akt phosphorylation in L2 cells; assay: Akt phosphorylation in L2 cells (HIMF isolation vs mock isolation); assay type: cell-based
Description: Recombinant HIMF. The C-terminal tagged HIMF was generated by PCR and inserted into pcDNA5/FRT/TO vector using the EcoR V and Xho I restriction sites. The pcDNA5/FRT/TO vector containing the recombinant HIMF gene was then integrated in a Flp recombinase-dependent manner into the genome of the Flp-In™ T-REx™ 293 cell line using the Flp-In™ T-REx™ kit from Invitrogen (Carlsbad, Calif.). Production of recombinant HIMF was induced by tetracycline (1 μg/ml) in the 293 cells maintained in DMEM supplemented with 5% FBS, 2 mM of glutamine, 100 U/ml of penicillin and 100 μg/ml of streptomycin, 100 μg/ml of hygromycin B, and 7.5 μg/ml of blasticidin. HIMF was purified by anti-FLAG M2 antibody agarose (Sigma, St. Louis, Mo.) column chromatography from the 293 cell culture medium with FLAG (0.1 mg/ml) elution. The concentration of the HIMF protein was estimated semi-quantitatively by silver staining after SDS-PAGE using BSA as the standard. […] Therefore, the recombinant protein has 96 amino acids and has a calculated molecular weight of 10,444 Da. […] To exclude the role of possible contaminants such as insulin, a mock isolation control experiment was performed. The medium obtained from the control TREx-293 cell culture was used for the mock isolation. […]

[4] = tested on: vascular tube formation in the Matrigel plug; assay: Matrigel plug assay in vivo; parameters: species or system mouse; conditions: HIMF 50 nM final, subcutaneous, 7 days; FLAG control 4.3±0.84; n=3, P<0.001
Description: Matrigel plug assays: 200 μl of Matrigel mixed with FLAG or HIMF (50 nM final) was injected subcutaneously (n=3 for each group) on the back of mice. Mice were sacrificed after 7 days and the Matrigel plugs collected. Following fixation in 4% paraformaldehyde in PBS ([…], pH 7.4), 10 μm frozen sections were cut and stained either with hemotoxylin and eosin (HE) or von Willebrand factor (vWF). For the detection of vWF, anti-human vWF (1:250 dilution, Dako) and anti-rabbit IgG conjugated with FITC (1:500 dilution) were used. The positive cells were counted and expressed as cell numbers per 20× field.

Molecule	inhibition of serum-induced RPSM proliferation [1]	inhibition of HIMF-activated Akt phosphorylation ([2]; inhibitor 20 μmol/L, HIMF 5×10^−8 mol/L)	inhibition of HIMF-activated Akt phosphorylation ([2]; inhibitor 50 μmol/L, HIMF 5×10^−8 mol/L)	pulmonary arterial pressure (PAP) (pulmonary vasculature)	pulmonary vascular resistance (PVR) (pulmonary vasculature)	pulmonary vasoconstrictor potency versus endothelin-1, angiotensin II, or serotonin (molar dose-response curves) (pulmonary vasculature)	Akt phosphorylation in L2 cells ([3]; HIMF isolation, mock isolation had no effect)	activation of Akt by the recombinant protein ([3]; L2 cells, preliminary experiments)	proliferation of RPSM (3H-thymidine incorporation) ([1]; HIMF 3.3×10^−9 to 3.3×10^−8 mol/L)	Akt activation sustained through ([2]; HIMF 5×10^−8 mol/L) [min]	activation of phosphorylation of Akt ([2]; HIMF 5×10^−8 mol/L)	time of peak Akt activation (phosphorylation) ([2]; HIMF 5×10^−8 mol/L) [min]	activation of Akt by the recombinant protein ([2]; preliminary experiments)	vascular tube formation in the Matrigel plug [4]
O=c1c(-c2ccc(O)cc2)coc2cc(O)cc(O)c12 [Genistein, reference compound]	inhibit	did not inhibit												
O=C(Nc1cc(C(=O)Nc2ccc(S(=O)(=O)[O-])cc2S(=O)(=O)[O-])cc(C(=O)Nc2ccc(S(=O)(=O)[O-])cc2S(=O)(=O)[O-])c1)Nc1cc(C(=O)Nc2ccc(S(=O)(=O)[O-])cc2S(=O)(=O)[O-])cc(C(=O)Nc2ccc(S(=O)(=O)[O-])cc2S(=O)(=O)[O-])c1.[Na+].[Na+].[Na+].[Na+].[Na+].[Na+].[Na+].[Na+] [NF449, reference compound]	inhibit		did not inhibit											
HIMF: hypoxia-induced mitogenic factor; recombinant C-terminal FLAG-tagged protein of 96 amino acids purified from 293 cell culture medium (protein, UniProt Q9EP95 24-111, looked up, C-terminal FLAG tag, hypoxia-induced mitogenic factor; recombinant C-terminal FLAG-tagged protein of 96 amino acids purified from 293 cell culture medium) Resistin-like alpha: DETIEIIVENKVKELLANPANYPSTVTKTLSCTSVKTMNRWASCPAGMTATGCACGFACGSWEIQSGDTCNCLCLLVDWTTARCCQLS				increased	increased	more potent	stimulated	activated	dose-dependently increased	≥ 60	strongly activated	5	activated	17.7±1.37 /×20 field
